From publication PMC12856669 (2026)

Tests used:
[1] = biological target: NpF2164g6 (1038–1206), holo-protein, not biotinylated
[2] = biological target: NpF2164g6 (1038–1206), holo-protein, not biotinylated; test: other fluorescence titration; Pr (dark) state fluorescence of NpF2164g6 against binder concentration, 1:1 binding model, gives Kd,D; 25 °C, PBS pH 7.2
[3] = biological target: NpF2164g6 (1038–1206), holo-protein, not biotinylated; test: thermal reversion kinetics (UV-vis); observed thermal reversion rate of NpF2164g6 against binder concentration, gives Kd,L of the light (Pg) state; 25 °C, PBS pH 7.2
[4] = biological target: Biotinylated NpF2164g6 (1038–1206), Avi-tagged holo-protein; test: ELISA; purified biotinylated NpF2164g6 immobilised, purified FLAG-tagged binders, dark-adapted (Pr state)
Sequence of Biotinylated NpF2164g6 (1038–1206), Avi-tagged holo-protein (main, as listed by the source): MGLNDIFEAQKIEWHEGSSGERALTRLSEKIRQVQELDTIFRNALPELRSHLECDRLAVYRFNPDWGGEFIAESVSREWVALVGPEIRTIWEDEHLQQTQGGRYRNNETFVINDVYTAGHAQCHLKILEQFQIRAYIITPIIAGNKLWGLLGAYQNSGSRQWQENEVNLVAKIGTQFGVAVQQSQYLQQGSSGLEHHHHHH

[5] = biological target: T1, NpF2164g6 (1038–1206), holo-protein, not biotinylated (phycocyanobilin (PCB) chromophore bound); test: dark state (Pr), thermal reversion
T1 chain: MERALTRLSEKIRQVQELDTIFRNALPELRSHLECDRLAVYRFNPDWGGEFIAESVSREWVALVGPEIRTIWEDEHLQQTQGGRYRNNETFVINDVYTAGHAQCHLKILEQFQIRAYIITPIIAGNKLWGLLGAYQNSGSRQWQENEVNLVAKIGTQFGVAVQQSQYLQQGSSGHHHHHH

[6] = biological target: Biotinylated NpF2164g6 (1038–1206), Avi-tagged holo-protein; test: ELISA; purified biotinylated NpF2164g6 immobilised, purified FLAG-tagged binders, red-light conditions (Pg state)
[7] = biological target: T1, NpF2164g6 (1038–1206), holo-protein, …; test: Pr-state (dark), from thermal reversion rate
[8] = biological target: T2, NpF2164g6 (1052–1206), N-terminal truncation (phycocyanobilin (PCB) chromophore linked to Cys90 (construct numbering); 15N label for NMR); test: light state (Pg), thermal reversion
T2 chain: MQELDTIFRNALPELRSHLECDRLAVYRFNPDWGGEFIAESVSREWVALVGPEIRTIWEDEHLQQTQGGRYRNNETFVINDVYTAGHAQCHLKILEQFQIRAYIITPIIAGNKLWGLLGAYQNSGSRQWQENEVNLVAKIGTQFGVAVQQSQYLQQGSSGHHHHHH

[9] = biological target: T2, NpF2164g6 (1052–1206), N-terminal …; test: dark state (Pr), thermal reversion

Binder | SEAP reporter activity in stably transfected CHO-K1 cells (NpF2164g6-FUS-VP16-NLS and E-BNp-Red-1.2-NLS), dark against 660 nm illumination for 24 h, bulk cell culture [1] [fold] | SEAP reporter activity in stably transfected CHO-K1 cells (NpF2164g6-FUS-VP16-NLS and E-BNp-Red-1.2-NLS), dark against 660 nm illumination for 24 h, individual clones [1] [fold] | Kd [2] [µM] | Kd [3] [µM] | Kd [4] [µM] | Kd [5] [µM] | Kd [6] [µM] | Kd [7] [µM] | Kd [8] [µM] | Kd [9] [µM]
BNp-Red-1.2 (designed binder) MKLATIDQWLLKNAKEDAIAELKKAGITADAYFNWINNAWDVDYVNYRKNKILKAHAGSSGLEHHHHHH | 24 | > 30 | 3 | > 30 | 0.6 | 3.7 | > 100 | 3.7 | – | –
BNp-Red-1.0 (binder of NpF2164g6-Red state) (designed binder) MKLATIDQWLLKNAKEDAIAELKKAGITSDAYFNLINDAFDVDYVNYRKNKILKAHAGSSGLEHHHHHH | – | – | 7 | > 200 | – | 7.9 | – | 7.9 | > 180 | 7
